Patent publication US10927153 (UNIVERSITY OF SOUTH FLORIDA, dated 2021)

T1: Sal-1 DBP-II Mutant 1 (changes at residues 218 and 221-223), recombinant (Plasmodium vivax (strain Salvador I), UniProt P22290 211-525)
T1 chain: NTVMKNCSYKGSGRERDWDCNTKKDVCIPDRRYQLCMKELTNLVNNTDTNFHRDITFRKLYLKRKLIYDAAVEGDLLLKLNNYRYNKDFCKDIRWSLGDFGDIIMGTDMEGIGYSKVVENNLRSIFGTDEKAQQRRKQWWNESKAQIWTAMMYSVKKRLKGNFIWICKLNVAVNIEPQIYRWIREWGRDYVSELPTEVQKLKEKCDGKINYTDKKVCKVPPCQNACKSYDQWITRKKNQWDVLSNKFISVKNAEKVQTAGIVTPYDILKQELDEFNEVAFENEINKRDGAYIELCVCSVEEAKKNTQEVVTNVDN

T2: Sal-1 DBP-II Mutant 12 (changes at residues 479 and 480), recombinant (Plasmodium vivax (strain Salvador I), UniProt P22290 211-525)
T2 chain: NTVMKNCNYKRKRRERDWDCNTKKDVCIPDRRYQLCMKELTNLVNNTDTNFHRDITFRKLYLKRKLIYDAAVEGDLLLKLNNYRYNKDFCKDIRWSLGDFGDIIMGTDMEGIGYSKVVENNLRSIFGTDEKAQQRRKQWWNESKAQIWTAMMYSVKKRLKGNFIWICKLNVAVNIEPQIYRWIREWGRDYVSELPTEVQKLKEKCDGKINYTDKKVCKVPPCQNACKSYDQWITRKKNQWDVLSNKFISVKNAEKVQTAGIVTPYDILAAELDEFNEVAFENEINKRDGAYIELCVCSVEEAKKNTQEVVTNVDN

T3: Duffy Antigen Receptor for Chemokines (DARC) on human Duffy positive erythrocytes (human, UniProt Q16570 1-336)
T3 construct: whole, on cells; also called DARC positive erythrocytes
T3 sequence: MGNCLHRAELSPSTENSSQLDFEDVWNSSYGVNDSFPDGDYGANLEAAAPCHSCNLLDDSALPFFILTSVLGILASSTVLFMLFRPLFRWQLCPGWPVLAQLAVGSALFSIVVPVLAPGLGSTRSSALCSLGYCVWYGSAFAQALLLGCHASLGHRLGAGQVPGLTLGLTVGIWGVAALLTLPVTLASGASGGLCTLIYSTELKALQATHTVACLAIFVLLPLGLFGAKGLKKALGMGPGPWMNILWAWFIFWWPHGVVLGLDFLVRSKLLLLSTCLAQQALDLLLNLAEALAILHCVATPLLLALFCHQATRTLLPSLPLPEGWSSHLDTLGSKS

B1: anti-DBPII monoclonal antibody mAb 2C6 (antibody, V domains shown)
VH: QVQLQQSDAELVKPGASVKISCKVSGYTFTDHSIHWMKQRPEQGLEWIGYIYPRDGSTEYNEKFKGKATLTTDKSSSTAYMQLNSLTSADSAVYFCARWFGYYFDYWGQGTTLTVSS
VL: NIMMTQSPSSLAVSAGEKVTMSCKSSQSVLYSSNQKNYLAWYQQKPGQSPKLLIYWASSRESGVPDRFTGSGSGTDFTLTISSVQPEDLAVYYCHQYLSSWTFGGGTKLEITR
B2: recombinant DEKnull-4 (designed binder)
chain: TISSAIINHAFLQNTVMKNCNYKRKRRERDWDCNTKKDVCIPDRRYQLCMKALTNLVNNTDTNFHRDITARKAYLAAKLTADAASEGDLLLKLAATATSAATCKDIRWSLGDFGDIIMGTDMEGIGYSKVVENNLRSIFGTDEKAQQRRKQWWNESKATIWTAMMASATASAATSAATAAKLNVAVNIEPQIYRWIREWGRDYVSELPTEVQKLKEKCDGKINYTDKKVCKVPPCQNACKSYDQWITRKKNQWDVLSNKFISVKNAEKVQTAGIVTPYDILKQELDEFNEVAFENEINKRDGAYIELCVCSVEEAKKNTQEVVTNVDNHHHHHH
notes: Dimerization residues of Sal1 mutated; also called rDEKnull-4
B3: recombinant DEKnull-2 (designed binder)
chain: TISSAIINHAFLQNTVMKNCNYKRKRRERDWDCNTKKDVCIPDRRYQLCMKELTNLVNNTDTNFHADITFRKLYLKAKLIYDAAVEGDLLTKLNNYRYNKDFCKDIRWSLGDFGDIIMGTDMEGIGTSAVVENNLRSIFGTAATAQARRSQWTSESKAQIWTAMMYSVKKRLKGTFIWICKANVAVNIEPQIYRSIREWGRDYVAELPTEVTKLKEKCDGKINYADKKVCKVPPCQNACKSYDQWITRKANQWDVLSNKFTSAKNAEKAQTASIVTPYDILKQELDEFNEVAFENEINKRDGAYIELCVCSVEEAKKNTQEVVTNVDNHHHHHH
notes: Polymorphic residues of Sal1 mutated; also called rDEKnull-2
B4: DBPII Sal1 expressed on the surface of COS7 cells (ligand)
chain: TISSAIINHAFLQNTVMKNCNYKRKRRERDWDCNTKKDVCIPDRRYQLCMKELTNLVNNTDTNFHRDITFRKLYLKRKLIYDAAVEGDLLLKLNNYRYNKDFCKDIRWSLGDFGDIIMGTDMEGIGYSKVVENNLRSIFGTDEKAQQRRKQWWNESKAQIWTAMMYSVKKRLKGNFIWICKLNVAVNIEPQIYRWIREWGRDYVSELPTEVQKLKEKCDGKINYTDKKVCKVPPCQNACKSYDQWITRKKNQWDVLSNKFISVKNAEKVQTAGIVTPYDILKQELDEFNEVAFENEINKRDGAYIELCVCSVEEAKKNTQEVVTNVDN
notes: also called COS7 cell surface-expressed Sal1; wild type DBPII Sal1
B5: recombinant DBPII Sal1 (ligand domain, region II, of Plasmodium vivax Duffy binding protein, Sal1 allele) (ligand)
chain: TISSAIINHAFLQNTVMKNCNYKRKRRERDWDCNTKKDVCIPDRRYQLCMKELTNLVNNTDTNFHRDITFRKLYLKRKLIYDAAVEGDLLLKLNNYRYNKDFCKDIRWSLGDFGDIIMGTDMEGIGYSKVVENNLRSIFGTDEKAQQRRKQWWNESKAQIWTAMMYSVKKRLKGNFIWICKLNVAVNIEPQIYRWIREWGRDYVSELPTEVQKLKEKCDGKINYTDKKVCKVPPCQNACKSYDQWITRKKNQWDVLSNKFISVKNAEKVQTAGIVTPYDILKQELDEFNEVAFENEINKRDGAYIELCVCSVEEAKKNTQEVVTNVDN
notes: also called rDBPII Sal1; rDBPII
B6: recombinant DEKnull (designed binder)
chain: TISSAIINHAFLQNTVMKNCNYKRKRRERDWDCNTKKDVCIPDRRYQLCMKELTNLVNNTDTNFHRDITFRKLYLKRKLIYDAAVEGDLLLKLNNYRYNKDFCKDIRWSLGDFGDIIMGTDMEGIGYSKVVENNLRSIFGTAATAQATRSQWTSESKAQIWTAMMYSVKKRLKGNFIWICKLNVAVNIEPQIYRWIREWGRDYVSELPTEVQKLKEKCDGKINYTDKKVCKVPPCQNACKSYDQWITRKKNQWDVLSNKFISVKNAEKVQTAGIVTPYDILKQELDEFNEVAFENEINKRDGAYIELCVCSVEEAKKNTQEVVTNVDN
notes: also called rDEKnull; original DEKnull
B7: DEKnull-4 expressed on the surface of COS7 cells (designed binder)
chain: TISSAIINHAFLQNTVMKNCNYKRKRRERDWDCNTKKDVCIPDRRYQLCMKALTNLVNNTDTNFHRDITARKAYLAAKLTADAASEGDLLLKLAATATSAATCKDIRWSLGDFGDIIMGTDMEGIGYSKVVENNLRSIFGTDEKAQQRRKQWWNESKATIWTAMMASATASAATSAATAAKLNVAVNIEPQIYRWIREWGRDYVSELPTEVQKLKEKCDGKINYTDKKVCKVPPCQNACKSYDQWITRKKNQWDVLSNKFISVKNAEKVQTAGIVTPYDILKQELDEFNEVAFENEINKRDGAYIELCVCSVEEAKKNTQEVVTNVDN
notes: also called COS7 cell surface-expressed DEKnull-4
B8: DEKnull-2 expressed on the surface of COS7 cells (designed binder)
chain: TISSAIINHAFLQNTVMKNCNYKRKRRERDWDCNTKKDVCIPDRRYQLCMKELTNLVNNTDTNFHADITFRKLYLKAKLIYDAAVEGDLLTKLNNYRYNKDFCKDIRWSLGDFGDIIMGTDMEGIGTSAVVENNLRSIFGTAATAQARRSQWTSESKAQIWTAMMYSVKKRLKGTFIWICKANVAVNIEPQIYRSIREWGRDYVAELPTEVTKLKEKCDGKINYADKKVCKVPPCQNACKSYDQWITRKANQWDVLSNKFTSAKNAEKAQTASIVTPYDILKQELDEFNEVAFENEINKRDGAYIELCVCSVEEAKKNTQEVVTNVDN
notes: also called COS7 cell surface-expressed rDEKnull-2
B9: recombinant DEKnull-3 (designed binder)
chain: TISSAIINHAFLQNTVMKNCNYKRKRRERDWDCNTKKDVCIPDRRYQLCMKELTNLTATATSAAHRDITFRKLYAARTSAYDAAVEGDLLLKLTNYRASTDACKAATWSLGDFGDIIMGTDMEGIGYSKVVATNLRSIFGTDEKAQQRRKQWTATSKAQIWTAMMAASTAASKGNAIWSCKLNVAVNIEPTIAAWIATSARATSSELPTEVQKLKEKCDGKINYTDKKVCKVPPCQNACKSYDQWITRKKNQWDVLSNKFISVKNAEKVQTAGIVTPYDILKQELDEFNEVAFENEINKRDGAYIELCVCSVEEAKKNTQEVVTNVDNHHHHHH
notes: also called rDEKnull-3
B10: DEKnull-3 expressed on the surface of COS7 cells (designed binder)
chain: TISSAIINHAFLQNTVMKNCNYKRKRRERDWDCNTKKDVCIPDRRYQLCMKELTNLTATATSAAHRDITFRKLYAARTSAYDAAVEGDLLLKLTNYRASTDACKAATWSLGDFGDIIMGTDMEGIGYSKVVATNLRSIFGTDEKAQQRRKQWTATSKAQIWTAMMAASTAASKGNAIWSCKLNVAVNIEPTIAAWIATSARATSSELPTEVQKLKEKCDGKINYTDKKVCKVPPCQNACKSYDQWITRKKNQWDVLSNKFISVKNAEKVQTAGIVTPYDILKQELDEFNEVAFENEINKRDGAYIELCVCSVEEAKKNTQEVVTNVDN
notes: also called COS7 cell surface-expressed DEKnull-3

Key:
[1] = target: T4, Sal-1 DBP-II expressed on the surface of HEK293T cells (Plasmodium vivax, UniProt P22290 198-525); assay: immunofluorescence on HEK293T cells, 10 ug/mL mAb
T4 construct: Expressed from the pRE4 vector on HEK293T cells; also called P. vivax Sal-1 DBP-II

[2] = target: T1, Sal-1 DBP-II Mutant 1 (changes at …); assay: ELISA on adsorbed recombinant protein
[3] = target: T2, Sal-1 DBP-II Mutant 12 (changes at …); assay: ELISA on adsorbed recombinant protein
[4] = target: T3, Duffy Antigen Receptor for Chemokines …; assay: in vitro erythrocyte binding assay, eluted antigen detected by blot with mAb-3D10
[5] = target: T3, Duffy Antigen Receptor for Chemokines …; assay: in vitro erythrocyte binding assay, blot of eluted antigen
[6] = target: T3, Duffy Antigen Receptor for Chemokines …; assay: COS7 cell binding assay (rosettes)

| Binder | binding result [5] | binding result [6] | also measured |
| --- | --- | --- | --- |
| B1 |  |  | binding result [1]: binds; binding result [2]: binds; binding result [3]: no binding |
| B2 |  |  | binding result [4]: no binding |
| B3 | binds |  |  |
| B4 |  | binds |  |
| B5 | binds |  |  |
| B6 | binds |  |  |
| B7 |  | no binding |  |
| B8 |  | binds |  |
| B9 |  |  | binding result [4]: no binding |
| B10 |  | no binding |  |
